The source of these data is US20160346411A1.

Data set [1] deals with DD(E), soluble protein fragment of fibrin (human) (UniProt P02671). Description: competitive displacement of TRITC-Tn6 (0.1 µM) from DD(E) (2 µM), fluorescence anisotropy, least-squares regression.
The target in data set [2] is clotted fibrin (human). Description: T1-weighted MR at 1.5T: percent change of signal-intensity ratio, phantom 3 (pelleted fibrin) against phantom 1 (fibrinogen), 10 µM probe, liquid above the pellet; 1 pre-treated with PDI and DTT is converted to EP-2104R.
Chain of clotted fibrin (human) (P50402 whole entry, the tested form may be a part): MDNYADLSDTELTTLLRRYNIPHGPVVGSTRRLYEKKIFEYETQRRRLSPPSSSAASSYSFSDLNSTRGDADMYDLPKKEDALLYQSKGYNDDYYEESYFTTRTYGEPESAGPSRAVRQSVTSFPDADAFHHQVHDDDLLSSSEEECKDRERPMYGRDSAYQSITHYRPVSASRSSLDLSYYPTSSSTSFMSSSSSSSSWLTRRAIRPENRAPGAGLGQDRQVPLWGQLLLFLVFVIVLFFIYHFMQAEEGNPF
Data set [3] addresses clotted fibrin (human). As to the kind of experiment: T1-weighted MR at 1.5T: percent change of signal-intensity ratio, phantom 2 (clotted fibrin) against phantom 1 (fibrinogen), 10 µM probe.
Data set [4] concerns the target clotted fibrin (human). Description: T1-weighted MR at 1.5T: percent change of signal-intensity ratio, phantom 2 (clotted fibrin) against phantom 1 (fibrinogen), 10 µM probe; 1 pre-treated with PDI and DTT is converted to EP-2104R.
For data set [5], the target named is clotted fibrin (human). Description: T1-weighted MR at 1.5T: percent change of signal-intensity ratio, phantom 3 (pelleted fibrin) against phantom 1 (fibrinogen), 10 µM probe, liquid above the pellet.
Data set [6] has as its target clotted fibrin (human). Description: T1-weighted MR at 1.5T: percent change of signal-intensity ratio, phantom 3 (pelleted fibrin) against phantom 1 (fibrinogen), 10 µM probe, region of the pellet.
The target in data set [7] is clotted fibrin (human). As to the kind of experiment: T1-weighted MR at 1.5T: percent change of signal-intensity ratio, phantom 3 (pelleted fibrin) against phantom 1 (fibrinogen), 10 µM probe, region of the pellet; 1 pre-treated with PDI and DTT is converted to EP-2104R.
The target of data set [8] is DD(E), soluble protein fragment of fibrin (human) (UniProt P02671). Description: competitive displacement of TRITC-Tn6 (0.1 µM) from DD(E) (2 µM), fluorescence anisotropy.
Another data set has as its system T1, TRITC-Tn6-MDS.
T1 sequence: QWECPYGLCWIQ

Data set [9] concerns the target DD(E), soluble protein fragment of fibrin (human) (UniProt P02671). As to the kind of experiment: direct titration of the TRITC probe (0.1 µM) with DD(E) up to about 32 µM, fluorescence anisotropy plotted as % probe bound. For orientation: Fluorescence polarisation rises when a labelled molecule tumbles more slowly, as on binding a larger partner.
Data set [10] has the same target. Description: fluorescence anisotropy, serial dilution of DD(E) mixed with the probe; reference is cyclic TRITC-Tn6.

Values joined by “and” are separate entries in the source; they are usually repeats but may differ in a detail not shown here. Equal values may be shown once. Numbered stars: 1 amine (or outer) side, 2 acyl side, 3 side chain; on linkers, the order of the positions; unused ones are H or OH. Bridge positions count the residues as written; N and C are the ends. TRITC = tetramethylrhodamine dye; Cysteamine = C(CS[*:2])N[*:1]; Ahx = NCCCCCC(=O)O

As a reminder, the Kd is the concentration at which binding is half-saturated. As for EP-2104R (peptide), the equilibrium dissociation constant (Kd) in [1] came to 160 nM. The %Δ SIR, upper region in the data set with clotted fibrin (human) [2] was -22%; in the data set with clotted fibrin (human) [5] it was -24% and -21%. The %Δ SIR was 8% and 11% in the data set with clotted fibrin (human) [3]; 12% with clotted fibrin (human) [4]. Besides, the %Δ SIR, lower region with clotted fibrin (human) [6] was 49% and 69%; with clotted fibrin (human) [7], 36%. Moreover, the IC50 (read off the curve) in data set [8] is 2 µM.
With protein disulfide isomerase, in the data set on TRITC-Tn6-MDS, the “conversion of the mixed-disulfide form to the cyclized form, followed by LC-MS” value is listed as “PDI alone does not promote cyclization of the probe, but PDI in the presence of a reducing agent like dithiothreitol (DTT) promotes rapid conversion of the probe to the desired product compared to DTT alone”; the “real-time change in fluorescence anisotropy in the presence of 2 µM DD(E)” value was “it is evident that only when both PDI and DTT are present simultaneously that the probe is efficiently activated”. For the same molecule, in the data set on Compound 1, the “conversion of Compound 1 to EP-2104R, followed by 1/T1 in the presence of 12.0 µM DD(E)” value is “The rate of conversion of 1 to EP-2104R was most rapid for the reaction performed under condition D in which both PDI and DTT were present simultaneously”; the “conversion of Compound 1 to EP-2104R, seen as fall of the anisotropy of TRITC-Tn6 on DD(E)” value was “with 1 mg/L PDI plus 10 µM DTT the anisotropy falls from about 0.25 to about 0.183 in about 1170 s, with DTT alone only to about 0.233; with PDI alone it stays at about 0.25 like untreated”; the “conversion of Compound 1 to EP-2104R, seen as rise of 1/T1 with 12.0 µM DD(E)” value was “with 3 mg/L PDI plus 10.0 µM DTT 1/T1 rises from about 0.69 to about 0.825 s-1 in about 3750 s, with DTT alone from about 0.65 to about 0.715 s-1; with PDI alone it stays at about 0.64 s-1 like untreated”.
In [9], {TRITC-Ahx}-QWECPYGLCWIQ-NH2 (disulfide 4-9) [TRITC-Tn6 peptide (cyclic form)] came in with a Kd of 0.51 µM.
Regarding {TRITC-Ahx}-QWEC(Cysteamine)PYGLC(Cysteamine)WIQ-NH2 [TRITC-Tn6-MDS], the fold Kd relative to the cyclic form in data set [10] was 20 fold. Besides, the Kd in [9] is 9.65 µM.
